Experimental data published in PMC6579465.

Target: CAPS1 (calcium-dependent activator protein for secretion, CADPS) (rat (endogenous in rat brain)) (UniProt Q62717)
Assay: affinity purification with mass spectrometry; CAPS1 immunoprecipitate of detergent extract resolved by SDS-PAGE; Coomassie-stained bands seen in the CAPS1 but not the control immunoprecipitate excised, in-gel digests, LC-MS/MS

CAPS1 (calcium-dependent activator protein for secretion, CADPS) (rat (endogenous in rat brain)), sequence (Q62717 whole entry): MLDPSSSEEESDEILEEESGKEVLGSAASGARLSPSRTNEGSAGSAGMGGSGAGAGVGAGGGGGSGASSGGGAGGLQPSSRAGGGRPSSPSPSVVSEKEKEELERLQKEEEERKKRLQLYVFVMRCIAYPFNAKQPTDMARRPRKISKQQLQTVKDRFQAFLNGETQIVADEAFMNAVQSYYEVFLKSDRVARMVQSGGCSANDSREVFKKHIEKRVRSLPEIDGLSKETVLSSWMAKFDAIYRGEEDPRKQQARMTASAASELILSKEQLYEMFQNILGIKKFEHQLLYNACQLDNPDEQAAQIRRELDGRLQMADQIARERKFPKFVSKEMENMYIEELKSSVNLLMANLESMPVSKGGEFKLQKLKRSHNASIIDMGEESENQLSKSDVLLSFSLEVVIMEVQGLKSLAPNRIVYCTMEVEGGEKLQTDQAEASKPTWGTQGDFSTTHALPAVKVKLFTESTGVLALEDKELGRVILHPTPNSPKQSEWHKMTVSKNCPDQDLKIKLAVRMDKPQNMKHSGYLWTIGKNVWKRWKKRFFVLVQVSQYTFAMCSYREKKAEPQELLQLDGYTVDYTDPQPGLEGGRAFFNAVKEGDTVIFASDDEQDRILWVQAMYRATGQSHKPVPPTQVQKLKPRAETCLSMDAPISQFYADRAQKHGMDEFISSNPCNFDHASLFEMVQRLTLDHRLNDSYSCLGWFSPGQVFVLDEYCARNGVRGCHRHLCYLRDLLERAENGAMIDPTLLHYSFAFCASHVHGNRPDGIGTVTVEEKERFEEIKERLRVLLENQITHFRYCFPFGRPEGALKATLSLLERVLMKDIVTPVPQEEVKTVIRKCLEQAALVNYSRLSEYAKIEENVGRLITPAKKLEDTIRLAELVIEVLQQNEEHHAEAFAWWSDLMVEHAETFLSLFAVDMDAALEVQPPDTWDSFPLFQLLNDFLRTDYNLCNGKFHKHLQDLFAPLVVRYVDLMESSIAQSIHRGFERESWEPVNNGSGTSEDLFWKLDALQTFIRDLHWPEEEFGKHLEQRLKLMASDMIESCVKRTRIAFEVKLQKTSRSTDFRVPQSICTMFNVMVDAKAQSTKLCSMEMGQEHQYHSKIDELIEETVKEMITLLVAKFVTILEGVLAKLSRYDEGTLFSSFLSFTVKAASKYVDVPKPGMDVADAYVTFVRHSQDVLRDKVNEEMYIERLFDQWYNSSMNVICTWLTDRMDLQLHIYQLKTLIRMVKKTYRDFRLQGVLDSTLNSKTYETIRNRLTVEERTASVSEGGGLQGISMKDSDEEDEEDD

stoichiometry relative to CAPS1 (bands of the immunoprecipitate) (Rbcn3 subunit : CAPS1): 0.167
Substance: Rabconnectin3α (Rbcn3α) / Dmx-like 2 (DMXL2) (natural protein)
